Measurements: the NTF2 design screens of Basanta et al. (2020)

Experiment: protease stability score; higher = more stable; yeast display proteolysis, trypsin and chymotrypsin;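 note: relative to predicted unfolded state with 0 unfolded-like and 1 meaning tenfold more protease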

Row | Sequence | protease stability score
1 | EEDHSEVERRLEIILHKWETGDERILHHYLDPHAKFIINGREYHGRENALEHWVKSEEDLGVKHERLREYDFRYQGDKVELHTEIELHVGNKVFDIHIIIIARKVNGRWVIEEVRLEFR | 1.23
2 | DDIREDLLRIIKLFIDYLITGDWKWIEKLADPHVRVEIDVNGKEIERHGMDQLREHLKHLWDRYDHLEFRIDDFKAIGEYSTLNGTLIVVVDGQKKSVEVRVVIVIINGKIDEVRHEQN | -0.239
3 | TEEEEIVTRALDKFREDLDTGDWKSIKHNFDPDVRLVFENHSTHGRELAVTIAEHIFKRFDYVHDSRNEHIKFQGDKVEWHSHYDGTINGRRMEVRILLIVRKYNGVWIIEEYLIV | 1.47
4 | DEHEMEIRDFIDKFLQSLRTGDEEKVHKLIDPHVRTQIDGQEFHGREEFLRFLRTHLERLGVDHIDVDLQQIEIVGEKINIHGTLTIEIDGRYLRHTFHLRVEKVNGKWIIESIRMT | 2.15
5 | SEEHEVAKDAFDVTSHSWKTGDEELFRKLLDPNARFEIDGRDLHGRELVIKFIIEIRWEHTHVEEINVQGDKIIIKSRMEIHYNGVHINITVIVHVRKVNGRWITTHYIFI | 1.67
6 | DEDDEDSEEASRRMVETHLTGDEDKQSKMMDPNVKFLFNGVEFHGWELLHKIWTEFGIKHHQLKSVEVRNINGQVRVHVDGVIDVNGVSLKSELNFVAEKVDGRWRVKRIEIHIR | 1.58
7 | SEWDELLRHILEVMINSVLTGDEHRQLWMADPHAKVHFENHEVHGRDHWSHLVREHINEIRMRIHLHDEKTVGNFAVSDVRYREEVNGVELSTEIELILIVVDGRLKQIEFRYH | -0.029
8 | SEEEEHEKEVIKRIREAMLTGDEDTLRHLLDPNVRVNIDGVEIVGMEMILRHLREIRVSIKDLKVTHVRSVNGRVEADTRSHLIIIIGDKKYEEESETRFFILKIDGRWLLTTIEFK | 1.49
9 | DESEELAKQFMEVLARSMRTGDEEKIVKMLDPNVKVVINGVELHGREALEHILREIRVEDVWLTHIFVQGEKVRIDYREKGEFNGRLDTLTVHIIVKKIDGKWKITEFRIH | 1.89
10 | DEHDERQHKIHRRFFEAYMTGNEDEMLQLADPNVRLHIGDKDLIGRELFSTWVRELHDRFPGMRIHIEDEDIQGEKSHHRVRIHVDGVTRNVRINQDWYNGRLREMSIDIR | 0.353
11 | DEEEELLKDLLRKWLEAMRTGDWEELERLLDPHVRIHIGDKDIHGRELFIELHERELKRIKNVKIVIDDKHIEFQGDKARVDGKLQEQVGDKEITHRVIIIMRVIDGKFESMEVRYV | 1.08
12 | DEEHRHAEEILKDLQKALITGDEHNMMNLLDPHVRVDFDGVEIIGRELWVELFRTLKKELGITRFDIHLHTHDMKIFDGRVTLDTRLHLHYNGRTEERRVIIYVTKVNGRWHIESMEIK | 1.82
13 | DEDRRLMEELTRHRIDLKKTGNEELLRTLADPNTRALVNGKDMHGREQIATWLWQFREDLGVDHIDLEDFHVQGDKMEVHLDWKVNGQRIEVIVIIYIVDGRIKKEEMHFT | 0.416
14 | DESHRESKLANELLKLALHTGDEDLLRELLDPRMRLEIGDKEFIGRDIMVQAMHEFYRELGVKHTDLKIKRVEIQGNKVINEGILWFHVGDKEHWVSTEFQSVKVNGRWLLQVFSIK | 1.35
15 | SDEEHIVQVALKNYIKAVMTGDEHLFNELMDPNTRNDINGVIYHGMEEWVKSVEELGIERFTIHEVYEHDFRVYNGQVDIHVRVDREVNGRRINDEVEIVAYKVNGRWQLRSLIFR | 1.39
16 | SEKRQEERKMLELIEHYWQTGDFELLRELADPDTKVRIGDKERHGWEAYIEILRTLGADHMSIRDQKTVGDYVILHIDIRIGDKRYETTLVSEKFDGRWILRRSEFR | 1.16
17 | NEEKELWHKDIEDLQRDWKTGDEDSVREQLDPDVRLDINGVEIIGMEEATRFIIELMREIRIHVNLERIIIQGDKIILHGNLVVEQGDKHHITRQTIDARKVDGRWFEHKVRVE | -0.033
18 | SEEEHEAIKHAYEFLEWLRTGDEEKIEKLLDPNVRLIIGDKTAHGREEFIRVMKEELERMGVNVFRLRDTRVNIFDGRVEIRFDTDLHFNGKTVHVELILRVHKVDGRWVLESVQVNIH | 1.48
19 | DEEEEHWKHIAKEYLDNFRTGDWKNFMDNADPDYRFILSQGNKEDNHHGMHFFVEWILRFLKKFKNATFVLRHFSIQGNKIHMELDITVGDKRIDTKINIEIIDGVVHTIEIRLD | 0.821
20 | DHDTRRHEKILSDYAHALHTGNFHMLKELMDPHVRLEIGDKEFVGREEVMRYLQHIRSYIHRLRIDHIEIQGDKIHSDVREHLHFEIGDKDHNHDTRVEQLWLKVNGRWLLQQIVVR | 2.16
21 | SEDEEEAKRSIELEMRSWRTGDEDAWLRLADPDVKFVIDGREFHGREALEFLQNRFDHIEMREHEVRHVDLQGDKIHMDTRLRMILIYNGVEIEKETRTEIVVKKIDGRWILHQVEYR | 0.724
22 | DEDDEDADNAIRLIVHSMLTGNEDFFSRLLDPNVRLDYNGVEFIGREDVVRFWNQMRFEFRVEVRRTSSQGDKVNWDIRLRIILHFNGKRHDRLHDTVLISRKYNGKWHVEQIEVR | 1.54
23 | SDLEDEFREFLEEWIKHWLTGDEETLFHLADPHAQIDINGREHHGMDEWMHILLKHLKELGARIEIRIEDIRVQGEKTEVDGNLILHINGRRKELKVELIVRVVNGRLKSIEIRIH | 1.02
24 | DEDERLAEEAVKLLIEINRTGDEDLFERNIDPNAQSDINGRRLHGMEQISEFLLRIKNIKLQPRHVDVQGDKMRVEGHLHINGQTHEVRWFVTKINGVWLITEIRVH | 1.12
25 | DEQEQHAFKFFEHHTEILKTGDWEEVRKNLDPHVRLHVNGVEMHGMEHATELALKEDTEIRSELRLEDVDVQGDKVRFDIRLIYHIGDKTIVHKIDLVMIKINGRWLVHSIHVE | 0.36

Row | Sequence | protease stability score
26 | SEEEEYFRFVAEEFLKAWSTGNEEILERLFDPRVRLSFNGKQFHGRERVHDKLMQLLEHLGINHTRIDDREFRIIGDKAEIRIDLILHVGDKTLRVEVILIITKVNGVWMMKEVELRIH | 1.51
27 | HELEERLEKWFKKFLHNMMTGDEDKLIHLADPHAKFRIDGVESHGRENWSRYVEERHLKLGLENIHVNVHRVHVQGDKIDMTGTLEINGQRVDFHIHIEVVDGRIKRLIIIIE | 0.732
28 | DEEEEILREFSEKWLHAFRTGDWRDIWHLMDPHVKVIIFVDGREKEIHGREEYATQLHERLEKVKGMRFRDKDMDHVNGRLVINVTVHQGDKHKEFRIIIDVVNGRVKRIEIHLH | 2.06
29 | DELTKEFEHFLEMLRRAQETGDEETVAKLMDPDVRIIIDGRNIIGREELTRFVSEWREEITVNEKHLKVINGRIHVDGEYHSRIRFDGREQRYSTRVHIVTIKVDGQWLLRTVHIG | 1.05
30 | DEDTEKVRWFFEVLKRASDTGNEEEELKLLDPNARYIFNGKNDHGRRAWERFKKNLGVKHVEIHPRDFDVVDGRIHIEIELRIHVDGREIRFDIEIIVEKFNGRWYLRSIHID | 0.376
31 | SEELRILVELVSKFYDAMKTGDEKTLKELADPNMRIIVGDKVLHGMESLKTHLKRIDHIYVHHFDYKKVDVQGDKVHVRGHSNLVLEFENHREEVIIHENWIVTKYNGRWSLESLEIR | 1.49
32 | SEEEELSHTMWRLWVHAVRTGDFRMLEHLADPHVRDVRNINGVTTRLVGREEWRRIVEEEIDKYPNMRVEFEDVRDVGNYVHAHTKSHYDGKTVDTRVELLVVDGRISDFKLHIE | 1.08
33 | DELTDSREHALNLYIHKLETGDWNLHERFLDPNVRVDYDGVDLHGREIYRQWETERLEIAGIKHLELKRKSVQGEKIRIDGIEKFDGKEVKTHVIILKVNGKWILETVIFK | 0.171
34 | HEEEEEAERFVKEIIHSWKTGNEDDMHRLVDPNVRLIIGDKTYHGRENFVKHMEEWLQRAGVKHFHLRKVDVFDGKLDIHSEVRQGSDETELHISVEKINGRWRLQLVIIV | 1.7
35 | SEEKEHHHQLARDILEMLRTGNEEIWHRLLDPHVKLNIDGKEYHGREDVRQMLRDHLEKIKGIKLHVTDVKDFDGKVYVHGRWHVGNFTVDILTIYTFIDGRVHTMSEETR | 1.41
36 | TDKEEETKENAEKLTKHILTGNWEEFFNLADPNVRMHIQQGDKRINRHGREDAYHEYKDLERNLGIDHMHIKDIRVQGDWVHIHLEYRYGDKRFEVEIVLLIVDGRLTEVNVTIR | 1.09
37 | EEEEKHEREMAKIMLDVLRTGDEELFERMFDPNTRYEVGDKILHGRHEVLRNWLEMIKKFKNARFITRHVHVFNGVLHINIEVRFDGRTHEYHIDLFFWDGRFKEVRVESH | 1.54
38 | KEDSEIAEDIIRLLNHASSTGDEETFTHLADPNVRIKIGDKESHGREEWSRTLTELRVEFKDMKIRDVDIQGEYVFVEGELRVEITVNGRTIEIHYESHFIMEKVNGRWHVHSVMML | 0.222
39 | DEDEELYEKFTRDLNHSLMTGDEEVMRELADPHVKVDFNGRELHGWEAVTFLLRVMGIDHLELKDIRLQGDKARNYTILRFNGRTSTLIVVLHKVNGKWIIESFEYR | 1.07
40 | SDIEDESEKFVRMFLHSYETGDWKSLREMFDPNARTIIGDKHTHGRELAVELWEDLFKRLGIKHIEVTHVHIRVINGRIDVRIEVHLNQGEFRYHIIIIVHVTKFNGVWLLTEFRIEEK | 1.27
41 | DDHHELLKRMMDIIKEQFLTGDWEEHRRMADPHVKVIINGVQLIGWEHIRRFEEEMRRQWRIHHVEDKDERYFEGRAHVHSEIDGEFDGKREIHHSVIHLHVVNGRLKRLELRFE | 1.28
42 | TEKEELYRKIYELLENLLFTGDEHAWRNNMDPHVKILLNIDGKIHDLHGWHAWHLVLRLLGIDHMEFKDFHVQGDKFHLELTVDFDGREHIMRVDIIVVNGKITSVRVSIE | 1.37
43 | DDEEKLSKDASELWKKSMLTGDEDTLMKLADPHTRLEIRIGDKTDEIHGMEWVAHLLTNLGIDHFILRDEHIQGEKVIIRGEIDINGRTHESIIIVIIINGRLKSVTFIKL | 0.94
44 | DEEEKRIEEIARLIFKLWHTGDEEHFLRLADPHVRLNVDGRELHGRERVKHWLHELRHRVDHITDYKEKHKENQGEFFVQWGVLDVHVDGKNVRTRVRIEIVVIDGKINEVRIEVH | 1.36
45 | DEDEEISKRLLKQLIHMLKTGDEDLFWHLFDPDTRLIVGDKEDHGREELAKSIRELWHEIRIERLHLRSIHIIGDFIHLIVRLIRNVNGKKDDINLELIVIKVDGKWRFKEMEIQ | 1.44
46 | DEDEKMAREFVELWVHLLSTGNEDLEKHLVDPHVRVDINGQEIHGRNHLITFLIQIKNLTFEFRHVRITVVGDKIQVHIHGIVQVNGQWREVMIDFEAEKINGRWLQKQFHVKIH | 1.96
47 | REDKKDAEDIIRWLLRAWHTGDPRDVEKMMDPNTLSDINGQKIHGREDVSRFNEFILRHARVEVDVHSMEVYGNYLHVDERFTLRIGDKEIRTETHIIIIKVNGRWLVQTISYG | 0.782
48 | DEDRKEAERIARQTLHDLRTGNEDMLTKLLDPHARIDVNGVDNIGWEIIVKHVKERRHQWRIHHEHWRDYHFINGVIHIDLEVHIRVDGVDIRTETRVHILIINGRLREIRVEVD | 0.772
49 | DEHEDDARRMWELLEHDLQTGDEESIHRLVDPNAKVVYGDKEFVGREVLLRFASEWRVHLMHLDDIKIRTYGDKIDIDTTTITNGEFNGRKHVTRTHLRVHFEKVNGKWYVREVIIEIH | 1.31
50 | DEKQRDIEEMARRFVEIFHTGDEENYLELADPDMRLDVGDKHYHGREDVHKWLHEELRRIKNATIRIKHIHVQGDKVHLEITIEIGDKHRKSHIHLQIVDGVIKRIEIRWS | 1.09
